For series [1], the target named is XF1293 (hypothetical conserved protein) (Xylella fastidiosa, UniProt Q9PDT6 Q9PDT6:1-231). Kind of series: SPR. Conditions: tags: His6, E. coli; label: biotin.
Series [2] deals with XF0749 (virulence regulator) (Xylella fastidiosa, UniProt Q9PFC9 Q9PFC9:1-134). Kind of series: SPR. To be noted: tags: His6, E. coli; label: biotin.
Series [3] deals with T1, TTF1 (thyroid transcription factor 1) (Ciona intestinalis, UniProt O96738 O96738:1-477).
T1 sequence: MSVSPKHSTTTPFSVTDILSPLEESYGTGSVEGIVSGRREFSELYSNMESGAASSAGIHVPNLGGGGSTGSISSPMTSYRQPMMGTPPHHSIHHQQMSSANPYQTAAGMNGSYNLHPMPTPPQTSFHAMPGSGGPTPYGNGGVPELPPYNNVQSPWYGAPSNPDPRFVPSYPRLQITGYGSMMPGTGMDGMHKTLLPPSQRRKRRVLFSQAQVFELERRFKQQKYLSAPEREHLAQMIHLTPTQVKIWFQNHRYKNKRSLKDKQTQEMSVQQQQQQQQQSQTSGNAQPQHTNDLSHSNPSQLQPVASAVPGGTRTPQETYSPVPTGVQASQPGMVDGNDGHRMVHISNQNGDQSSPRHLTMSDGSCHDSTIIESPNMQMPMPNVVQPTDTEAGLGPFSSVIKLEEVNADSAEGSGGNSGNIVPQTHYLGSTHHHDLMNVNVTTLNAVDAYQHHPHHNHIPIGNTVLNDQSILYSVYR
Kind of series: SPR; kinetic global fit 1:1; steady-state Kd 65.6 nM; HBS-P pH 7.5, 150 mM NaCl. To be noted: tags: N-terminal His6 plus factor Xa site (pNHis vector), E. coli; label: biotin. On the procedure: (§1) The affinity, as described by the KD, was determined by a global fit using the kinetic simultaneous kₐ/kd model, assuming Langmuir (1:1) binding.
(§2) BIAcore surface plasmon resonance. The affinity of the aptamers for their protein targets was measured using surface plasmon resonance (SPR) with a BIAcore X instrument (BIAcore, Piscataway, N.J.). Biotinylated aptamer (QIAGEN Operon, Alameda, Calif.) was diluted to 0.5 ng/μL in HBS-P (10 mM HEPES, pH 7.5, 150 mM NaCl, 0.05% Tween 20), heated to 95° C., and rapidly cooled at 4° C. before use. Approximately 100 RU of biotinylated aptamer (ligand) was immobilized to one flow cell of a streptavidin coated sensor chip. Purified TTF1 protein was diluted into HBS-P to give a series of concentrations of TTF1 protein (3, 12, 31, 62, 125, 250 nM or 2.5, 5, 10, 20, 40, 100 nM) that were injected over the surface for 2 min at a flow rate of 20 μL/min (to minimize mass transfer limitations). Bulk shift and non-specific interactions with the streptavidin were subtracted using the response from a reference flow cell. […] The affinity, as described by the equilibrium dissociation constant (KD), was determined globally by fitting to the kinetic simultaneous kₐ/kd model, assuming Langmuir (1:1) binding. The steady-state affinity was determined from curve-fitting to a plot of the Req values, derived from sensorgrams fitted locally, against the concentrations.
(SPR reads the build-up and loss of mass on a sensor chip optically.)

The target of the next series is BSA (UniProt P02769 P02769:25-607). Kind of series: ELONA; PBS-T, 4 C overnight. Conditions: label: biotin.
BSA, sequence (P02769 25-607, one chain of several): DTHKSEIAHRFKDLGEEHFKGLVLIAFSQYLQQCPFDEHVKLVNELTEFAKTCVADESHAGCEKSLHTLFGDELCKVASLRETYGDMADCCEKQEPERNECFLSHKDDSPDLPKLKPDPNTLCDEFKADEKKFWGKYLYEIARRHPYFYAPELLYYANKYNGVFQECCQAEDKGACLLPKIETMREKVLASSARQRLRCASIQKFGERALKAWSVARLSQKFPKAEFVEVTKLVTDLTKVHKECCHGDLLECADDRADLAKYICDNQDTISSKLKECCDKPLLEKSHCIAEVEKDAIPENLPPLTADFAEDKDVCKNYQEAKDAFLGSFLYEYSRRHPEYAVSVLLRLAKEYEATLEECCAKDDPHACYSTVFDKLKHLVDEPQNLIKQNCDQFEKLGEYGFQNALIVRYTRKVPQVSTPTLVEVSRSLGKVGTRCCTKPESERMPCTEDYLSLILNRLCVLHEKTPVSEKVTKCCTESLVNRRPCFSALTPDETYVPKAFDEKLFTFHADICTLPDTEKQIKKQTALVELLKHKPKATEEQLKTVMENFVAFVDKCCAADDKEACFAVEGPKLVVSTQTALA
The target of series [4] is T1, TTF1 (thyroid transcription factor 1). Briefly: SPR; kinetic global fit 1:1; steady-state Kd 5.14 nM; HBS-P pH 7.5, 150 mM NaCl. Conditions: tags: N-terminal His6 plus factor Xa site (pNHis vector), E. coli; label: biotin. On the procedure:
as §1, §2

B1: 6H7 (ssDNA)
DNA: GGTATTGAGGGTCGCATCGCTATGGGTGGTCTGGTTGGGATTGGCCCCGGGAGCTGGCGATGGCTCTAACTCTCCTCT
As a reminder, the Kd is a measure of binding affinity in units of concentration. Consider B1, for which the Kd was 0.4 nM in series [1] and 42 nM in series [2].

B2: TTF1 Aptamer C (ssDNA)
DNA: GGTATTGAGGGTCGCATCTGGCTAGTGGGTAAGGGGCGGGAGGGTGACAGGGCGATCCGATGGCTCTAACTCTCCTCT
Turning to B2, the Kd in series [3] worked out at 32.5 nM.

B3: 6H5 (ssDNA)
DNA: GGTATTGAGGGTCGCATCGGCTTCAGGTTGGTCTGGTTGGGTTTGGCTCCTGTGTACGGATGGCTCTAACTCTCCTCT
Regarding B3, in series [1], the Kd is 30 nM.

B4: 6H1 (ssDNA)
DNA: GGTATTGAGGGTCGCATCGGCAAAAAGGATTGCCCAGGTCTGCTGTCTAGCCGGATTCGATGGCTCTAACTCTCCTCT
For the molecule B4, the Kd in series [1] came out at 0.08 nM.

B5: TTF1 Aptamer A (ssDNA)
DNA: GGTATTGAGGGTCGCATCTCAAAAGGGGTGATTGCTTGCACAATGACAGGGTAGGACAGATGGCTCTAACTCTCCTCT
For the molecule B5, in the series with BSA, the binding result was “no binding”. For the same molecule, the Kd in series [4] came to 3.36 nM.

Source of the values: patent US20050142582, “Aptamers and methods for their in vitro selection and uses thereof” (The Regents of the University of California, published 2005).
